Tests used:
[1] = target: T1, human B7-H4 on cells (human, UniProt Q7Z7D3 25-282); experiment: cell-based or functional assay
T1 sequence: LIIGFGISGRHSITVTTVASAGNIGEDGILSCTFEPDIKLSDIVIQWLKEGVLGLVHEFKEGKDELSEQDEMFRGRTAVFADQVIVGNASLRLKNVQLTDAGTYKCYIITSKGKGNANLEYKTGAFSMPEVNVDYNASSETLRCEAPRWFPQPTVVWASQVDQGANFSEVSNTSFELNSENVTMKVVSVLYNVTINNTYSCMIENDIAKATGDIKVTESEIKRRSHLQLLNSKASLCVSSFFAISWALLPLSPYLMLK

[2] = target: T2, Murine B7-H4 ECD-Flag-His10 (monomeric) (mouse, UniProt Q7TSP5 25-257); experiment: Octet; summary table, repeats Table 9 (hIgG1-TM)
T2 construct: extracellular domain; also called FlagHis10 murine B7-H4
T2 sequence (looked up): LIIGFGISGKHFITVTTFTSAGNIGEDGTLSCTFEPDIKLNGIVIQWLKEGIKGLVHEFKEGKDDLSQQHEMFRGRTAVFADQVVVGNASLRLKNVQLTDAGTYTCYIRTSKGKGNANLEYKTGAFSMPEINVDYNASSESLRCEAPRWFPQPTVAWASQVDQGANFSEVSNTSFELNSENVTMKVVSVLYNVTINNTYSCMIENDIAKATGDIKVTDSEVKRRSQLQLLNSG

[3] = target: T3, Human B7H4 ECD (SV), splice variant, 10His_FLAG (human); experiment: Octet; summary table, repeats Table 9 (hIgG1-TM)
T3 construct: also called B7-H4-SV

[4] = target: T2, Murine B7-H4 ECD-Flag-His10 (monomeric); experiment: Octet BLI, hIgG1-TM on Protein G (n = 4-7)
[5] = target: T3, Human B7H4 ECD (SV), splice variant, …; experiment: Octet BLI, hIgG1-TM on Protein G (n = 4-7)
[6] = target: T4, Human B7-H4 ECD-Flag-His10 (monomeric) (human, UniProt Q7Z7D3 25-259); experiment: Octet BLI, hIgG1-TM on Protein G (n = 4-7)
T4 construct: Minimally biotinylated for KinExA; also called hB7H4-ECD-Flag-His10; B7-H4-FLAG
T4 sequence: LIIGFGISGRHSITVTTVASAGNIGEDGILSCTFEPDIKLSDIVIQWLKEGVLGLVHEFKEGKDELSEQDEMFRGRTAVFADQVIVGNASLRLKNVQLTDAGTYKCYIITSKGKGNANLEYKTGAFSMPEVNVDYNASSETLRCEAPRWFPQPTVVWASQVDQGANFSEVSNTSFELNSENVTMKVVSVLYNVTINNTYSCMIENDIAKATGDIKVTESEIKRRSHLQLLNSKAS

[7] = target: T5, huBTNL3 (human, UniProt Q6UXE8 18-237, limits assumed); experiment: ELISA
T5 construct: Sourced antigen; construct not described; also called Human BTNL3
T5 sequence (looked up): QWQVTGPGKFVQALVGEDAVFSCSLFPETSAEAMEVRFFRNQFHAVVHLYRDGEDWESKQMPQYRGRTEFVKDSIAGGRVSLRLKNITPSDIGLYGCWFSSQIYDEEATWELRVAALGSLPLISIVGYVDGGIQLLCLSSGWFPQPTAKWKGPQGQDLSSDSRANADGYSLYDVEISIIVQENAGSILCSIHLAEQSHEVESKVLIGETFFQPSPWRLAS

[8] = target: T6, huBTN3A2 (human, UniProt P78410 30-248, limits assumed); experiment: ELISA
T6 construct: Sourced antigen; construct not described; also called Human BTN3A2

[9] = target: T7, huBTN2A1 (human, UniProt Q7KYR7 29-248, limits assumed); experiment: ELISA
T7 construct: Sourced antigen; construct not described; also called Human BTN2A1
T7 sequence (looked up): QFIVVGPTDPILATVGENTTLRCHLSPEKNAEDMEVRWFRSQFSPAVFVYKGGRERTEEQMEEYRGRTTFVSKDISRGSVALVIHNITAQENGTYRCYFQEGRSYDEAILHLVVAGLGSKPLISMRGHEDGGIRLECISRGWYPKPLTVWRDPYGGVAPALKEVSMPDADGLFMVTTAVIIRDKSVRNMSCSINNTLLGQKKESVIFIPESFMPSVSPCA

[10] = target: T8, huB7-H2 (human, UniProt O75144 19-258); experiment: ELISA
T8 construct: Sourced antigen; construct not described; also called Human B7-H2
T8 sequence (looked up): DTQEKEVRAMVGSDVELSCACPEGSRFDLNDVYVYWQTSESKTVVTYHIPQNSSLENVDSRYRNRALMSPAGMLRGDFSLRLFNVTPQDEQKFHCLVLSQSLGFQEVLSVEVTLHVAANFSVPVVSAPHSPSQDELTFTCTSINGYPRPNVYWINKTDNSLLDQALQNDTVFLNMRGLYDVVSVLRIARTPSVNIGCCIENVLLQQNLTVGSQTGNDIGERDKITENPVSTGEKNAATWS

[11] = target: T9, huB7-H3 (human, UniProt Q5ZPR3 29-461, limits assumed); experiment: ELISA
T9 construct: Sourced antigen; construct not described; also called Human B7-H3
T9 sequence (looked up): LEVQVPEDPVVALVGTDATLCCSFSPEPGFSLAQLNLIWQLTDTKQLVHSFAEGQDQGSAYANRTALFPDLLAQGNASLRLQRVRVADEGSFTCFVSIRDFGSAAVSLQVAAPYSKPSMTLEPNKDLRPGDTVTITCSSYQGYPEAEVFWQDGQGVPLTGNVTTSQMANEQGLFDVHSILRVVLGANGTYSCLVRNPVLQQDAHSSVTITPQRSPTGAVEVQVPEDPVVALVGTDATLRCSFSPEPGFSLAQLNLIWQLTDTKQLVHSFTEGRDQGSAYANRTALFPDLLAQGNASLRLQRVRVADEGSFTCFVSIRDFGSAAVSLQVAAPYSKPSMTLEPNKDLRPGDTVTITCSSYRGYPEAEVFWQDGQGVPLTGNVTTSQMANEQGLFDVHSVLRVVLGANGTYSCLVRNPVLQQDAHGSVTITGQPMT

[12] = target: T10, huBTN1A1 (human, UniProt Q13410 27-242, limits assumed); experiment: ELISA
T10 construct: Sourced antigen; construct not described; also called Human BTN1A1
T10 sequence (looked up): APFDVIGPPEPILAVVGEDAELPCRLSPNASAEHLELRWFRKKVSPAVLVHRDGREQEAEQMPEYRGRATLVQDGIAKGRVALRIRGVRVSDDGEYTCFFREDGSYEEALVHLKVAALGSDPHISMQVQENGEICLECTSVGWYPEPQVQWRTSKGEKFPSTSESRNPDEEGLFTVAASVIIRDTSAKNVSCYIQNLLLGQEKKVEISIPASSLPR

[13] = target: T11, huHHLA2 (human, UniProt Q9UM44 23-344); experiment: ELISA
T11 construct: Sourced antigen; construct not described; also called Human HHLA2
T11 sequence (looked up): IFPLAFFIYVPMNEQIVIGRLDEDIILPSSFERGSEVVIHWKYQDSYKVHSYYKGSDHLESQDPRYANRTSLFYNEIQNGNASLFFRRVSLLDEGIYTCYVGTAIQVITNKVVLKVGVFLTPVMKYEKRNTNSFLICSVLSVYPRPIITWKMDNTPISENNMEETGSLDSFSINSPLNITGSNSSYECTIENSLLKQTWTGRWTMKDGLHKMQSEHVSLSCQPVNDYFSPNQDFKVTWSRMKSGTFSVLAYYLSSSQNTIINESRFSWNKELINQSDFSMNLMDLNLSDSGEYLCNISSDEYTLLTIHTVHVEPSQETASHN

[14] = target: T12, huB7-H1 (human, UniProt Q9NZQ7 19-238); experiment: ELISA
T12 construct: Sourced antigen; construct not described; also called Human B7-H1

[15] = target: T4, Human B7-H4 ECD-Flag-His10 (monomeric); experiment: Octet; summary table, rounded from Table 9 (hIgG1-TM)
[16] = target: T12, huB7-H1; experiment: ELISA, absorbance 450 nm, antigen human B7-H1(ECD) F10H
[17] = target: T6, huBTN3A2; experiment: ELISA, absorbance 450 nm, antigen human BTN3A2 GST
[18] = target: T9, huB7-H3; experiment: ELISA, absorbance 450 nm, antigen human B7-H3 (ECD) Fc
[19] = target: T13, Human B7-H4-Fc (Human B7H4 ECD, Fc_6His) (human); experiment: HTRF binding, murine IgG1
T13 construct: also called FcHis6 tagged human B7-H4
T13 sequence (Q7Z7D3 whole entry, looked up): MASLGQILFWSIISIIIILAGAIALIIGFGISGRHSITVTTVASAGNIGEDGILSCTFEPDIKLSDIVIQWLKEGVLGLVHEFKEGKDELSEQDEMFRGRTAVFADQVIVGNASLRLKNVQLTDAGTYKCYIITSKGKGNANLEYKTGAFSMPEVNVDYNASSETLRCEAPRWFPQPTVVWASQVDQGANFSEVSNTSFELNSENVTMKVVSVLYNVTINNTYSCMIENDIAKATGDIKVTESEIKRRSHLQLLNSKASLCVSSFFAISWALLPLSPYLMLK

[20] = target: T14, Murine B7-H4-Fc (Mouse B7H4 ECD, Fc_6His) (mouse, UniProt Q7TSP5 25-257); experiment: HTRF binding, murine IgG1
T14 construct: extracellular domain; also called mouse B7-H4-Fc; FcHis6 tagged murine B7-H4
T14 sequence (Q7TSP5 whole entry, looked up): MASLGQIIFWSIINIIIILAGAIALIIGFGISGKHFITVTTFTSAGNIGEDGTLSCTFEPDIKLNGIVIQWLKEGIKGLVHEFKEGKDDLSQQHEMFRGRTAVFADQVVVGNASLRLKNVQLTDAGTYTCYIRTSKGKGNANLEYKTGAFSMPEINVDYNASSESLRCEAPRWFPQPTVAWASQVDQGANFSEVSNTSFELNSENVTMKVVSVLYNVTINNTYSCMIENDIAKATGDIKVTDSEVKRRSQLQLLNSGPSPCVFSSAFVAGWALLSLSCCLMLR

[21] = target: T10, huBTN1A1; experiment: ELISA, absorbance 450 nm, antigen human BTN1A1 GST
[22] = target: T15, Cyno B7-H4-Fc (Cyno B7H4 ECD, FcTM_6His) (cynomolgus monkey); experiment: HTRF binding, murine IgG1
T15 construct: extracellular domain; also called cynomolgus B7-H4-Fc

[23] = target: T8, huB7-H2; experiment: ELISA, absorbance 450 nm, antigen human B7-H2 (ECD) F10H
[24] = target: T11, huHHLA2; experiment: ELISA, absorbance 450 nm, antigen human HHLA2 GST

T6 sequence (P78410 30-248 limits assumed): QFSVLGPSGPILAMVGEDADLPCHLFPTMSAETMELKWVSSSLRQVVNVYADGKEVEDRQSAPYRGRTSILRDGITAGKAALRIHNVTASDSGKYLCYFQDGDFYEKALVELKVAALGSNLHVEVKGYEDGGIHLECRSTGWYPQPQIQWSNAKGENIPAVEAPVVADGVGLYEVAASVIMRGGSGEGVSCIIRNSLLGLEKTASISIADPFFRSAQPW
T12 sequence (Q9NZQ7 19-238 limits assumed): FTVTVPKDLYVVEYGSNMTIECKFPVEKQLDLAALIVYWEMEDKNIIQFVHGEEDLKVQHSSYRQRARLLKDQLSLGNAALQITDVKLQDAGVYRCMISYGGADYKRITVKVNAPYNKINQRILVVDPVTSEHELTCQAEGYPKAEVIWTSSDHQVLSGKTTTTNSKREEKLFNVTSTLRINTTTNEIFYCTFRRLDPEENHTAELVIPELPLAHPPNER

B1: ZY0EO5-E07 human IgG1-TM (antibody, V domains shown)
VH: QVQLQESGPGLVKPSQTLSLTCTVSGGSISSGGYYWSWIRQHPGKGLEWIGNIYYSGSTYYNPSLKSRVTISVDTSKNQFSLKLSSVTAADTAVYYCAREKALASVIPSGYENYYVVDVWGQGTTVTVSS
VL: DIQLTQSPSFLSASVGGRVTITCWASQGIAGYLAWYQQKPGKAPKLLIYAASTLQSGVPSRFSGSGSGTEFTLTISSLQPEDFATYYCQHLNSYPLTFGGGTKVEIK
notes: also called ZY0E05-E07; E05-E07
B1 was tested, and the “ZAP % Viability, OVCAR4” value [1] was 58%, the “ZAP % Viability, SKBR3” value [1] was 79% and the Kd [2] was 30 nM. It also gave a Kd [3] of 264 nM, a Kd [4] of 30 nM and a koff [4] of 0.000361 s⁻¹. The kon [4] was 12100 M⁻¹ s⁻¹, the Kd [5] was 264 nM and the koff [5] was 0.000499 s⁻¹. The kon [5] was 1890 M⁻¹ s⁻¹, the Kd [6] was 19.8 nM and the koff [6] was 0.000338 s⁻¹. For the same binder, the kon [6] was 17100 M⁻¹ s⁻¹, the binding result [7] was “no binding” and the binding result [8] was “no binding”. B1: no binding [9]; no binding [10]; no binding [11]. B1: no binding [12]; no binding [13]; no binding [14]. For the same binder, the Kd [15] was 20 nM.

B2: ZY0EP0-C07 murine IgG1 (antibody, V domains shown)
VH: QVQLVESGGVLVKPGGSLRLSCAASGFTLSDYYMSWIRQAPGMGLEWVSYISSSGSTIYYTDSVKGRFTISRDSAKNSLYLQMNSLRAEDTAVYYCARDGVGFDYWGQGTLVTVSS
VL: EIVLTQSPGTLSLFPGERATLSCRASQSVSSSYLAWYQQKPGQSPRLLIYAASSRATGIPDRFSGSGSGTDFTLTISRLEPEDFAVYYCQQYGSSPLYTFGQGTKLEIK
notes: also called ZY0EPO-C07
B2: no binding (tested: 10 µg/ml (antigen)) [16]; no binding (tested: about 10 µg/ml (antigen)) [17]; no binding [18]. The EC50 [19] was 0.95 nM, the Max [19] was 1740 and the EC50 [20] was 0.49 nM. For the same binder, the Max [20] was 1910, the binding result [21] was “no binding (tested: 10 µg/ml (antigen))” and the binding result [7] was “no binding”. The binding result [9] was “no binding”, the EC50 [22] was 1.28 nM and the Max [22] was 1250. B2: no binding (tested: 10 µg/ml (antigen)) [23]; no binding (tested: about 10 µg/ml (antigen)) [24].

From patent publication US20240239894A1 (AstraZeneca / MedImmune, published 2024)
